Values of other authors as cited in patent publication US20050107320A1, “Methods and compositions for use in interventional pharmacogenomics” (priority 2003, published 2005).

Legend:
[1] = administered systemically

For “EPO: glycoprotein hormone involved in the growth and maturation of erythroid progenitor cells into erythrocytes”, the clinical tolerability is listed as “well tolerated clinically” and the “crossing of the blood-brain barrier” value [1] is listed as “can cross the blood-brain barrier”.
